{"source": "patent US20170086465A1", "about": "(TECHNION RESEARCH AND DEVELOPMENT FOUNDATION, published 2017)", "proteins": {"B1": {"name": "C. elegans aff-1 fused to a C-terminal FLAG tag (AFF-1::FLAG) (other)", "chain": "RLRRHHRKRRFVSSNFDEFYCGESAHAQSQFEEERESNSSKVSSVHSTQFNWGLDNTICIKLQNVVHVLKYERLEQRYPIENSYTFSVPLIDTNCKCHCYGFGTNDVCNVEKYADDRNCTTSSEFPTCYTKYHPAVEPLDCPVTSIPAKACCDIKLKPRDGRMFRAVKLQQPINDMIISHSIFANNSGKMMKVLGPDEFRINLLKGKEQFELTEYHRISVQLVASSPQQQLREGMYYFPEENHNDLREGKINEITESDLDKLGWYRRVGNDWQVATSGLLLRNAHKVVIKNCKGQVHMDQFSGTKNFVLRGTQYNDTYNERRVSDNNFVRSVKVDESSREITIVHEHGTAAQVSLKTDTRPNLTKSQSLLANFTGSITLDHDGNRMLNVTFFGVKGTVHIKMYVNDRKLIATFACTAQFGTSLKDDGSRISLPSTINQAQWVCILPDEQPTKSEICKWIPYEEKAMRTPRQEQSWSKGHSPCSQAECNSLKSGVSDLFPWIMNFDYFMAHGGDFTEWLKIGIHIVIAVGLLLLLILLFTKCLVPLACCSLSIPFKNRNKKKKKKNSSDY"}}, "biological_target": "the molecule itself", "test": "cell-based or functional assay"}
{"protein": "B1", "values": [{"measurement": "infection of BHK-AFF-1 cells by VSVΔG-AFF-1 pseudovirus (GFP-expressing cells)", "value": 600, "unit": "fold"}]}
